What was measured:
[1] = target: Y1 receptors in anaesthetised rats (rat); experiment: cell-based or functional assay
[2] = target: Y2-like receptors in anaesthetised rats (rat); experiment: cell-based or functional assay

Substance: Ac[L28,I30]NPY24-36 (from UniProt P01303 52-64) (peptide)
- Increase in BP (rel to NPY), anaesthetised rats (relative to NPY) [1]: 0
- EC50 of the change in pulse interval (PI %), vagal stimulation in anaesthetised rats [2]: 1.26 nmol
